Target: SARS-CoV-2 Omicron-S (SARS-CoV-2) (UniProt P0DTC2)
Assay: cryo-EM structure

SARS-CoV-2 Omicron-S (from UniProt P0DTC2 340-527) (natural protein)
stoichiometry N: 3

From publication PMC9080080
